Data published in FireProtDB (doi:10.1021/bi00185a025).

Conditions: Escherichia coli (strain K12); pH 7; 25 °C; Urea; CD; Sodium phosphate 5 mM; reversible: yes; whole UniProt chain shown

B1: Chemotaxis protein CheY wild type, P0AE67 (protein)
chain: MADKELKFLVVDDFSTMRRIVRNLLKELGFNNVEEAEDGVDALNKLQAGGYGFVISDWNMPNMDGLELLKTIRADGAMSALPVLMVTAEAKKENIIAAAQAGASGYVVKPFTAATLEEKLNKIFEKLGM
- denaturant m value: 1.6 kcal/mol/M
- denaturant midpoint (higher = more stable): 3.25 M
- unfolding free energy: 5.2 kcal/mol
